Measured values: patent US20200282010A1, “IMMUNOGENIC COMPOSITIONS AND USES THEREFOR” (Epiaxis Therapeutics Pty Ltd, priority 2017, published 2020)

Legend:
Assay type in all cases: cell-based
Conditions in all cases: MCF7 breast cancer cell line; FIG. 1D
PKC-θ (T538p) = target: T1, PKC-θ (T538p) (Homo sapiens, UniProt Q04759); experiment: Nuclear localization of PKC-θ (Fn/c, immunofluorescence) in cells treated with peptide inhibitor
T1 construct: endogenous in cells; host or cells: MCF7
Text: (§1) FIG. 1 is a graphical, schematic and photographic representation showing that PKC-θ can be targeted for therapeutic intervention. A) Depicts the strength of binding of recombinant purified His6-PKC-θ to increasing concentrations of different subunits and subunit combinations (α2, α2β1, and β1) of the importin α/β heterodimer nuclear transport receptor using an AlphaScreen® binding assay as described in Wagstaff et al. (2011. Journal of Biomolecular Screening 16 (2):192-200). B-C) Depicts protein structure of PKC-θ indicating binding locations for the PKC-θ peptide inhibitor, PKCθi (RKEIDPPFRPKVK), including the nuclear localization sequence (NLS) of PKC-θ. D) The specificity of PKCθi was examined on cells treated with this peptide inhibitor. Cells were screened with primary antibodies to PKC-θ (T538p), PKC-β2, PKC-β1, PKC-α, PKC-ε and PKC-γ. The nuclear to cytoplasmic fluorescence ratio (Fn/c) using the equation: Fn/c=(Fn−Fb)/(Fc−Fb), where Fn is nuclear fluorescence, Fc is cytoplasmic fluorescence, and Fb is background fluorescence was used to determine the impact on nuclear translocation/localization. […] EC^50 of inhibitors calculated using GraphPad PRISM software. F) The PKC-θ kinase activity was measured using the PKC kinase activity kit from ENZO life sciences and recombinant PKC-θ; C27 is an inhibitor of PKC-θ kinase activity, which is disclosed in Jimenez et al. (2013. […]

PKC-β2 = target: T2, PKC-β2 (Homo sapiens, UniProt P05771); experiment: Nuclear localization of PKC-β2 (Fn/c, immunofluorescence), specificity
T2 construct: endogenous in cells; host or cells: MCF7
T2 sequence (P05771 1-673 isoform P05771-2): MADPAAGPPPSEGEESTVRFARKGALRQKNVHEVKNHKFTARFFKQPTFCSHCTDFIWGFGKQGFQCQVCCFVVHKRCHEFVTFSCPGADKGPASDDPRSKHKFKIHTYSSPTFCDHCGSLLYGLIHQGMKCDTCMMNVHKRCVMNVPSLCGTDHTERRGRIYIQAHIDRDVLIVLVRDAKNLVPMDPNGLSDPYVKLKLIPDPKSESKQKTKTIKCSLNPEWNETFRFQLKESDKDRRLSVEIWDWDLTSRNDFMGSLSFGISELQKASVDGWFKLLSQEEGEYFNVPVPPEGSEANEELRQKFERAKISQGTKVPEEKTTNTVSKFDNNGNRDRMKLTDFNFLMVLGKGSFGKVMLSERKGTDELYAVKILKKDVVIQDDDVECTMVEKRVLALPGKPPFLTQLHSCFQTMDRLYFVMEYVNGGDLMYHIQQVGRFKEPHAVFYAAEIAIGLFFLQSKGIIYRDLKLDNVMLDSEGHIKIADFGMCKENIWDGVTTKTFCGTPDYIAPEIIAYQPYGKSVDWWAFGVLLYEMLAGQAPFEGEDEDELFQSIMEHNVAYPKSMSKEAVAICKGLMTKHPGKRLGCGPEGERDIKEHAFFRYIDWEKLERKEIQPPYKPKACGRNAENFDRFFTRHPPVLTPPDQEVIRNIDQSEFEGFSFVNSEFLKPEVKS
Text: as §1

PKC-β1 = target: T3, PKC-β1 (Homo sapiens, UniProt P05771); experiment: Nuclear localization of PKC-β1 (Fn/c, immunofluorescence), specificity
T3 construct: endogenous in cells; host or cells: MCF7
T3 sequence (P05771 whole entry): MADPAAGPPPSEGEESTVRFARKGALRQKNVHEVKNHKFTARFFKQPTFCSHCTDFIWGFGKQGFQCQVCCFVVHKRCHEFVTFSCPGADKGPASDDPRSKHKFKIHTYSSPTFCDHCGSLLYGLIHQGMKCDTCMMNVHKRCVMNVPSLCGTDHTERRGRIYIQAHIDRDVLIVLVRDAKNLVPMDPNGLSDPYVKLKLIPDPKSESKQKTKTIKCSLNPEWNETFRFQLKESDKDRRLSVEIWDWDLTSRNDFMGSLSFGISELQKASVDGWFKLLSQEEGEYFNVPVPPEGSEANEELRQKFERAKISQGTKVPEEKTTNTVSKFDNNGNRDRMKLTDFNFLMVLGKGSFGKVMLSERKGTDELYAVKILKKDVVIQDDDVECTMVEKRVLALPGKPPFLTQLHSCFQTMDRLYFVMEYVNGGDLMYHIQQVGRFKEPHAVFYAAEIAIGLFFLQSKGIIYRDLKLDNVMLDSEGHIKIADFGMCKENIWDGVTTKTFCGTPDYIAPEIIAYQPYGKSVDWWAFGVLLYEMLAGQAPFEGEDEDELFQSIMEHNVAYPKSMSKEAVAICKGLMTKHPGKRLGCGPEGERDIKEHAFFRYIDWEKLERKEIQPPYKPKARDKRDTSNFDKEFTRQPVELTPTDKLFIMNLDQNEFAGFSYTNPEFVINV
Text: as §1

PKC-ε = target: T4, PKC-ε (Homo sapiens, UniProt Q02156); experiment: Nuclear localization of PKC-ε (Fn/c, immunofluorescence), specificity
T4 construct: endogenous in cells; host or cells: MCF7
T4 sequence (Q02156 1-737): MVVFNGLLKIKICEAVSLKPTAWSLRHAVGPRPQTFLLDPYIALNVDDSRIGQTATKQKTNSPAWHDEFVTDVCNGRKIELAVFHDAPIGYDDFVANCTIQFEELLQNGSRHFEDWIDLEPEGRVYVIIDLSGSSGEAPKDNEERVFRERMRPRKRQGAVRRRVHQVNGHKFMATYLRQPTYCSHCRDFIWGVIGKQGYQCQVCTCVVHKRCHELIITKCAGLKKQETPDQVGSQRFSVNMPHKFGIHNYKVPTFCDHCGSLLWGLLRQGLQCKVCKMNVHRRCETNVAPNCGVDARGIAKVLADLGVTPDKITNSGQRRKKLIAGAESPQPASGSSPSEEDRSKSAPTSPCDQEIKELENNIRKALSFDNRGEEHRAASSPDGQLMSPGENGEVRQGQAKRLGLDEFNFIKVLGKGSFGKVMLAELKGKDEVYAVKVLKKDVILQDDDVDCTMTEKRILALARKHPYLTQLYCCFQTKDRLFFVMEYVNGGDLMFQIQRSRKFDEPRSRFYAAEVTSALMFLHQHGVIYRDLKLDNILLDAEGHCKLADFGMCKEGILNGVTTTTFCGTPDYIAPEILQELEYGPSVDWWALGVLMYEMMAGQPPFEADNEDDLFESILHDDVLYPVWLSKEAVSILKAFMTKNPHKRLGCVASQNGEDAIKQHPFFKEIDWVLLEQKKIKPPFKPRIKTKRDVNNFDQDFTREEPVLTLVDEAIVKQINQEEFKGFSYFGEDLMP
Text: as §1

PKC-γ = target: T5, PKC-γ (Homo sapiens, UniProt P05129); experiment: Nuclear localization of PKC-γ (Fn/c, immunofluorescence), specificity
T5 construct: endogenous in cells; host or cells: MCF7
Text: as §1

T1 sequence (Q04759 whole entry): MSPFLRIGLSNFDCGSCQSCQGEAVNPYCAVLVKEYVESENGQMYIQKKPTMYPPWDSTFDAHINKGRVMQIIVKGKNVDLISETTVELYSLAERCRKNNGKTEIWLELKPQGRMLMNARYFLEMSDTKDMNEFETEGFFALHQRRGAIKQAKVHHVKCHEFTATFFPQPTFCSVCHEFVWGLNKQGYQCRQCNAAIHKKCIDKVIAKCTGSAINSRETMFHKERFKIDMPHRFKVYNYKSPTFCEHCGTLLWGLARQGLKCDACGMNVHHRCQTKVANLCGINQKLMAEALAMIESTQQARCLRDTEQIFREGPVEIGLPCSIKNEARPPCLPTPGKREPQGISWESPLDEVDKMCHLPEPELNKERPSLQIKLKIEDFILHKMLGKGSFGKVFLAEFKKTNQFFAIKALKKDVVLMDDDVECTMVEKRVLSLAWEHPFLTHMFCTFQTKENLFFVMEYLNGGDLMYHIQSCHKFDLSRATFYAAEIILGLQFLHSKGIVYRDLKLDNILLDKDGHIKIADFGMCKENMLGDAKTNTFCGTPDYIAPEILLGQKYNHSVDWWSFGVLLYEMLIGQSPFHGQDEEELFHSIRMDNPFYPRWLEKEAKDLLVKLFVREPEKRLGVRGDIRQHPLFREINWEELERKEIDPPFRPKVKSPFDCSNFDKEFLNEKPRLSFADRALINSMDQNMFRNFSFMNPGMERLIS

nuclear localization of PKC-θ (PKC-θ (T538p)): markedly inhibit
nuclear localization of PKC-β2 (PKC-β2): no effect
nuclear localization of PKC-β1 (PKC-β1): no effect
nuclear localization of PKC-ε (PKC-ε): no effect
nuclear localization of PKC-γ (PKC-γ): no effect
Sequence: RKEIDPPFRPKVK [PKCθi]
